The target of experiment [1] is K18 fragment of tau (UniProt P10636-8 244-372). In words: western blot of tau fragments. How it is done: (§1) T40 tau monomer or AD-tau were chemically and thermally denatured by 1:10 dilution in 8M guanidine hydrochloride and heating at 100° C. for 15 min, and non-denatured controls were diluted in Tris-buffered saline (TBS) at RT. Denatured or non-denatured tau was then diluted 1:50 in TBS and applied to 0.2 μm nitrocellulose membrane using a vacuum apparatus. For western blots, tau isoforms and fragments were diluted in SDS sample buffer, heated 10 min at 100° C., run on 12.5% SDS-PAGE gels and transferred to 0.2 μm nitrocellulose membrane. […] Infrared dye labeled secondary antibodies (LiCor) were used to detect primary antibody binding, with analysis on a LiCor scanner (LiCor).
Sequence of K18 fragment of tau (P10636 561-689 limits assumed): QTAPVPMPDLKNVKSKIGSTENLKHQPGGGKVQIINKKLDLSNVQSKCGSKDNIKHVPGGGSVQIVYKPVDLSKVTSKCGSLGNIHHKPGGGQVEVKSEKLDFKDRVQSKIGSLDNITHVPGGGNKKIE

Experiment [2] addresses ΔK18-P fragment of tau (Homo sapiens (Human), UniProt P10636 1-758). In words: western blot of tau fragments. As for the experimental part:
as §1

The target of experiment [3] is T1, AD-tau (Alzheimer's brain derived tau) (human, UniProt P10636-8 2-441, limits assumed).
T1 construct: Misfolded fibrillar tau from brain extract, not a single defined polypeptide; also called human AD-brain-derived pathological tau; AD tau PHF
T1 sequence (P10636 other isoform, or with tags, fused parts or gaps limits assumed): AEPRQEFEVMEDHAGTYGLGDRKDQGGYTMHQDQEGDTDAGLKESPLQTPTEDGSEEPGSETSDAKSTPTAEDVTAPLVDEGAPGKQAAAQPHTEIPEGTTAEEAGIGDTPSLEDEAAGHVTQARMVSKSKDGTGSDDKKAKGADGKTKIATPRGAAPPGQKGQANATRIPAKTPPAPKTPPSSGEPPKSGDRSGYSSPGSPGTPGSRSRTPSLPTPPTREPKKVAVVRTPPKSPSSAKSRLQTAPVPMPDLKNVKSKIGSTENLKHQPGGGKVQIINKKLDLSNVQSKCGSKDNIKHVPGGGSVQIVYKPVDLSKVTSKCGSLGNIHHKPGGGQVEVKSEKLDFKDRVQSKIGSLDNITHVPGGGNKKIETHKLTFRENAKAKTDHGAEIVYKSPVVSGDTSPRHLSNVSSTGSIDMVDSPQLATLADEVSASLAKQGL
Nature of the experiment: sandwich ELISA, tau antigen captured by K9JA. As for the experimental part:
(§2) Blocking was performed with BlockAce solution (Abd Serotec) at 4° C. overnight. […] Plates were washed with PBST and HRP-conjugated anti-mouse (Jackson Immunoresearch) secondary antibodies were applied for 2 h at 22° C. Plates were washed and tetramethylbenzidine peroxidase substrate (KPL laboratories) was added to wells to provide a colorimetric readout, quenched with 10% phosphoric acid and then absorbance measured at 450 nm (Molecular Devices SpectraMax).
(§3) Towards the goal of generating conformation-selective tau mAbs, mice were inoculated with human AD brain-derived extracts enriched in insoluble tau (AD-tau). Hybridoma clones generated from immunized mice were screened by sandwich ELISA to simultaneously assess binding of antibodies to tau monomer, AD-tau seeded recombinant tau preformed fibrils (AD-P1 PFFs), and AD-tau. […] Clones that bound AD-tau and AD-P1 PFFs with greater apparent affinity than tau monomer were prioritized and subsequently sub-cloned by limiting dilutions to monoclonal populations.

For experiment [4], the target named is T2, AD-P1 PFFs (AD-tau seeded recombinant tau preformed fibrils) (human, UniProt P10636 2-758).
T2 construct: Fibrils made from 36 uM T40 tau (2N4R) and 4 uM AD-tau seeds; also called T40 AD-P1 PFFs
T2 sequence (P10636 other isoform, or with tags, fused parts or gaps limits assumed): as above
Nature of the experiment: sandwich ELISA, tau antigen captured by K9JA. How it is done: as §2, §3

Experiment [5] addresses T3, T40 tau monomer (full length tau protein, 2N4R isoform) (human, UniProt P10636 2-758).
T3 construct: no sentence says so outright; also called T40 monomer; human T40 tau
Nature of the experiment: sandwich ELISA, tau antigen captured by K9JA. As for the experimental part: as §2, §3

T3 sequence (P10636 other isoform, or with tags, fused parts or gaps limits assumed): as above
Sequence of ΔK18-P fragment of tau (P10636 other isoform, or with tags, fused parts or gaps mutant): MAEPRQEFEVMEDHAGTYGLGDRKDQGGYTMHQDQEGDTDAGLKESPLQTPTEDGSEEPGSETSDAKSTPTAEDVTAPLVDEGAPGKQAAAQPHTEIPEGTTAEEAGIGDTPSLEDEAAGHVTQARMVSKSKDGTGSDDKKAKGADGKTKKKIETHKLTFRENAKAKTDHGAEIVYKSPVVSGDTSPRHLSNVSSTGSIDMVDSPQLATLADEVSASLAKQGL

B1: SKT82 (antibody, mouse IgG2a, V domains shown)
VH: EVQLQQSGAELVRSGASVKLSCTASGFNIKDYYMHWVKQRPEQGLEWIGWFDPENGDAEYAPKFQDKATMTADTSSNAAYLQLSSLTSEDTAVYYCNGYLYWGQGTLVTVSS
VL: DVLMTQTPLSLPVSLGDQASISCRSSQNIVHNNGNTYLEWYLQKPGQSPKLLIYKVSNRFSGVPDRFSGSGSGTDFTLKISRVEAEDLGIYYCFQGSHVPHTFGGGTRLEIK
notes: Mouse hybridoma monoclonal antibody purified from culture medium; also called tau mAb SKT82
In the case of B1, the binding result in experiment [1] and in experiment [2] was “no binding (tested: 20 µg/mL)” in each case. Also, the EC50 is 0.17 nM in experiment [3], 2.38 nM in experiment [4] and 4.13 nM in experiment [5].

B2: DMR7 (antibody, mouse IgG1, V domains shown)
VH: QVQLQQPGAELVRPGASVKLSCKASGYIFTTYWMNWVKQRPGQGLEWIAMIDPSDSETHYNQMFKDKATLTVDTSSSTAYMQLSGLTSEDSAVYYCARGEGYWGQGTTLTVSS
VL: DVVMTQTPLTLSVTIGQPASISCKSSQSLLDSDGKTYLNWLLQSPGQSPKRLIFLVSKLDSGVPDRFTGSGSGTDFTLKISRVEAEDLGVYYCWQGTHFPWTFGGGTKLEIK
notes: Mouse hybridoma monoclonal antibody purified from culture medium; also called tau mAb DMR7; MHC2825
With B2, the binding result in experiment [1] and in experiment [2] was “no binding (tested: 20 µg/mL)” throughout. Further, the EC50 is 0.1 nM in experiment [3], 0.46 nM in experiment [4] and 12 nM in experiment [5].
